Experimental data published in the Immune Epitope Database (IEDB).

Assays:
HLA-A*02:01 = test: IEDB peptide-MHC binding, purified MHC/direct/fluorescence; filed as Kd, often an IC50 or EC50 that approximates it; ≥ and ≤ were set here for values at or beyond the usual limits of such assays
HLA-A*02:03 = test: as above; conditions: source organism: Giardia lamblia ATCC 50803
HLA-A*02:12 = test: as above; conditions: source organism: Giardia lamblia ATCC 50803
HLA-A*02:19 = test: as above; conditions: source organism: Giardia lamblia ATCC 50803
HLA-A*03:01 = test: as above
HLA-A*23:01 = test: as above; conditions: source organism: Giardia lamblia ATCC 50803
HLA-A*24:03 = test: as above; conditions: source organism: Giardia lamblia ATCC 50803
HLA-A*26:01 = test: as above
HLA-A*29:02 = test: as above; conditions: source organism: Giardia lamblia ATCC 50803
HLA-A*68:02 = test: as above; conditions: source organism: Giardia lamblia ATCC 50803
HLA-B*15:01 = test: as above
HLA-B*18:01 = test: as above
HLA-B*27:03 = test: as above; conditions: source organism: Giardia lamblia ATCC 50803
HLA-B*39:01 = test: as above; conditions: source organism: Giardia lamblia ATCC 50803
HLA-B*46:01 = test: as above
HLA-A*01:01 [1] = test: IEDB peptide-MHC binding, purified MHC/competitive/fluorescence; filed as Kd, often an IC50 or EC50 that approximates it; ≥ and ≤ were set here for values at or beyond the usual limits of such assays; conditions: source organism: Giardia lamblia ATCC 50803
HLA-A*11:01 [2] = test: as above; conditions: source organism: Giardia lamblia ATCC 50803
HLA-A*30:01 = test: as above
HLA-A*30:02 = test: as above; conditions: source organism: Giardia lamblia ATCC 50803
HLA-A*66:01 = test: as above; conditions: source organism: Giardia lamblia ATCC 50803
HLA-B*07:02 = test: as above; conditions: source organism: Giardia lamblia ATCC 50803
HLA-B*08:01 = test: as above
HLA-B*14:02 = test: as above; conditions: source organism: Giardia lamblia ATCC 50803
HLA-B*27:05 [3] = test: as above; conditions: source organism: Giardia lamblia ATCC 50803
HLA-B*40:01 [4] = test: as above; conditions: source organism: Giardia lamblia ATCC 50803
HLA-B*44:02 = test: as above; conditions: source organism: Giardia lamblia ATCC 50803
HLA-B*51:01 [5] = test: as above; conditions: source organism: Giardia lamblia ATCC 50803
HLA-B*53:01 = test: as above; conditions: source organism: Giardia lamblia ATCC 50803
HLA-B*58:01 [6] = test: as above; conditions: source organism: Giardia lamblia ATCC 50803
HLA-A*01:01 [7] = test: IEDB peptide-MHC binding, purified MHC/direct/fluorescence; filed as Kd, often an IC50 or EC50 that approximates it; ≥ and ≤ were set here for values at or beyond the usual limits of such assays; conditions: source organism: Mycobacterium tuberculosis
HLA-A*11:01 [8] = test: as above; conditions: source organism: Mycobacterium tuberculosis
HLA-A*31:01 = test: as above; conditions: source organism: Mycobacterium tuberculosis
HLA-A*69:01 = test: as above; conditions: source organism: Mycobacterium tuberculosis
HLA-B*15:17 = test: as above; conditions: source organism: Mycobacterium tuberculosis
HLA-B*27:05 [9] = test: as above; conditions: source organism: Mycobacterium tuberculosis
HLA-B*38:01 = test: as above; conditions: source organism: Mycobacterium tuberculosis str. Haarlem
HLA-B*40:01 [10] = test: as above; conditions: source organism: Mycobacterium tuberculosis
HLA-B*48:01 = test: as above; conditions: source organism: Mycobacterium tuberculosis
HLA-B*51:01 [11] = test: as above; conditions: source organism: Mycobacterium tuberculosis
HLA-B*57:01 = test: as above; conditions: source organism: Mycobacterium tuberculosis
HLA-B*58:01 [12] = test: as above; conditions: source organism: Mycobacterium tuberculosis
[13] = source organism: Giardia lamblia ATCC 50803
[14] = source organism: Mycobacterium tuberculosis
[15] = source organism: Mycobacterium tuberculosis variant bovis BCG str. Pasteur 1173P2

With MTFPLHFRS the Kd (HLA-A*02:01; [13]) was ≥ 20 µM, the Kd (HLA-A*02:03) was ≥ 20 µM and the Kd (HLA-A*02:12) was ≥ 20 µM. The Kd (HLA-A*02:19) was ≥ 20 µM, the Kd (HLA-A*03:01; [13]) was ≥ 20 µM and the Kd (HLA-A*23:01) was ≥ 20 µM. For the same sequence, the Kd (HLA-A*24:03) was ≥ 20 µM, the Kd (HLA-A*26:01; [13]) was ≥ 20 µM and the Kd (HLA-A*29:02) was 0.028 µM. For the same sequence, the Kd (HLA-A*68:02) was ≤ 0.001 µM, the Kd (HLA-B*15:01; [13]) was ≥ 20 µM and the Kd (HLA-B*18:01; [13]) was ≥ 20 µM. For the same sequence, the Kd (HLA-B*27:03) was ≥ 20 µM, the Kd (HLA-B*39:01) was ≥ 20 µM and the Kd (HLA-B*46:01; [13]) was ≥ 20 µM. The Kd (HLA-A*01:01 [1]) was ≥ 5 µM, the Kd (HLA-A*11:01 [2]) was 0.113 µM and the Kd (HLA-A*30:01; [13]) was ≥ 5 µM. For the same sequence, the Kd (HLA-A*30:02) was ≥ 5 µM, the Kd (HLA-A*66:01) was ≥ 5 µM and the Kd (HLA-B*07:02) was ≥ 5 µM. For the same sequence, the Kd (HLA-B*08:01; [13]) was ≥ 5 µM, the Kd (HLA-B*14:02) was ≥ 5 µM and the Kd (HLA-B*27:05 [3]) was ≥ 5 µM. The Kd (HLA-B*40:01 [4]) was ≥ 5 µM, the Kd (HLA-B*44:02) was ≥ 5 µM and the Kd (HLA-B*51:01 [5]) was ≥ 5 µM. The Kd (HLA-B*53:01) was ≥ 5 µM and the Kd (HLA-B*58:01 [6]) was ≥ 5 µM.
For RPRLWRSVI, the Kd (HLA-A*01:01 [7]) was ≥ 20 µM, the Kd (HLA-A*02:01; [14]) was ≥ 20 µM and the Kd (HLA-A*03:01; [14]) was ≥ 20 µM. For the same sequence, the Kd (HLA-A*11:01 [8]) was ≥ 20 µM, the Kd (HLA-A*26:01; source organism: Mycobacterium tuberculosis str. Haarlem) was ≥ 20 µM and the Kd (HLA-A*31:01) was ≥ 20 µM. The Kd (HLA-A*69:01) was ≥ 20 µM, the Kd (HLA-B*15:01; [14]) was ≥ 20 µM and the Kd (HLA-B*15:17) was 2.58 µM. For the same sequence, the Kd (HLA-B*18:01; [14]) was ≥ 20 µM, the Kd (HLA-B*27:05 [9]) was ≥ 20 µM and the Kd (HLA-B*38:01) was ≥ 20 µM. The Kd (HLA-B*40:01 [10]) was ≥ 20 µM, the Kd (HLA-B*46:01; [14]) was ≥ 20 µM and the Kd (HLA-B*48:01) was ≥ 20 µM. The Kd (HLA-B*51:01 [11]) was 0.964 µM, the Kd (HLA-B*57:01) was ≥ 20 µM and the Kd (HLA-B*58:01 [12]) was ≥ 20 µM. The Kd (HLA-A*30:01; [15]) was ≥ 20 µM and the Kd (HLA-B*08:01; [15]) was 0.324 µM.
